# Measurements taken from patent US20260098059A1 (ENDOMET BIOSCIENCES, published 2026).
# Where “and” joins values, the source holds several entries; their conditions need not be identical. Equal entries are not always repeated. Where no end group is shown, it is not given here.
# T1: β-catenin (UniProt P35222 134-665, limits assumed, biotinylated in the SPR and plate assays)
# T1 sequence (looked up): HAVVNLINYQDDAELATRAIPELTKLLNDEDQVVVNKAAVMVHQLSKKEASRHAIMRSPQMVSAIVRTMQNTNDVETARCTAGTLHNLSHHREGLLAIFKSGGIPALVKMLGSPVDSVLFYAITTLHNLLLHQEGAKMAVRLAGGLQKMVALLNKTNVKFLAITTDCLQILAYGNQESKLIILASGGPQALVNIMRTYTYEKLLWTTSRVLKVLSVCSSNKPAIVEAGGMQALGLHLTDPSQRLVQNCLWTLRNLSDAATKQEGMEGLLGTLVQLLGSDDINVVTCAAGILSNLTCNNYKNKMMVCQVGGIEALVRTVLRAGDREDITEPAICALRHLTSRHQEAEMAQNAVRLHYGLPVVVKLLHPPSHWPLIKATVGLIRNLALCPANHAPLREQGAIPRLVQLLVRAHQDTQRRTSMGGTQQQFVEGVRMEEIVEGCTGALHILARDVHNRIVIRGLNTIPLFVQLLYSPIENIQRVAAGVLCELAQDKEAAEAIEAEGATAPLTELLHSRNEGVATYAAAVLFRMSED
# B1: SEQ ID NO: 32 (peptide)
# peptide: KSRMWYLISFW
# HELM: PEPTIDE1{K.S.R.M.W.Y.L.I.S.F.W}$PEPTIDE1,PEPTIDE1,1:R3-11:R2$$$V2.0
# SMILES: CC[C@H](C)[C@@H]1NC(=O)[C@H](CC(C)C)NC(=O)[C@H](Cc2ccc(O)cc2)NC(=O)[C@H](Cc2c[nH]c3ccccc23)NC(=O)[C@H](CCSC)NC(=O)[C@H](CCCNC(=N)N)NC(=O)[C@H](CO)NC(=O)[C@@H](N)CCCCNC(=O)[C@H](Cc2c[nH]c3ccccc23)NC(=O)[C@H](Cc2ccccc2)NC(=O)[C@H](CO)NC1=O
# B2: SEQ ID NO: 105 (peptide)
# peptide: MSRMWFLISSW
# HELM: PEPTIDE1{M.S.R.M.W.F.L.I.S.[CCOC[C@H](N[*:1])C(=O)[*:2]].W}$$$$V2.0
# SMILES: CCOC[C@H](NC(=O)[C@H](CO)NC(=O)[C@@H](NC(=O)[C@H](CC(C)C)NC(=O)[C@H](Cc1ccccc1)NC(=O)[C@H](Cc1c[nH]c2ccccc12)NC(=O)[C@H](CCSC)NC(=O)[C@H](CCCNC(=N)N)NC(=O)[C@H](CO)NC(=O)[C@@H](N)CCSC)[C@@H](C)CC)C(=O)N[C@@H](Cc1c[nH]c2ccccc12)C(=O)O
# B3: SEQ ID NO: 106 (peptide)
# peptide: MSRMWFLISSW
# HELM: PEPTIDE1{M.S.R.M.W.F.L.I.S.[O=C([C@H](COCc1ccccc1)N[*:1])[*:2]].W}$$$$V2.0
# SMILES: CC[C@H](C)[C@H](NC(=O)[C@H](CC(C)C)NC(=O)[C@H](Cc1ccccc1)NC(=O)[C@H](Cc1c[nH]c2ccccc12)NC(=O)[C@H](CCSC)NC(=O)[C@H](CCCNC(=N)N)NC(=O)[C@H](CO)NC(=O)[C@@H](N)CCSC)C(=O)N[C@@H](CO)C(=O)N[C@@H](COCc1ccccc1)C(=O)N[C@@H](Cc1c[nH]c2ccccc12)C(=O)O
# B4: SEQ ID NO: 101 (peptide)
# peptide: WFLISSW
# HELM: PEPTIDE1{W.F.L.I.S.[O=C([C@H](COCc1ccccc1)N[*:1])[*:2]].W}$$$$V2.0
# SMILES: CC[C@H](C)[C@H](NC(=O)[C@H](CC(C)C)NC(=O)[C@H](Cc1ccccc1)NC(=O)[C@@H](N)Cc1c[nH]c2ccccc12)C(=O)N[C@@H](CO)C(=O)N[C@@H](COCc1ccccc1)C(=O)N[C@@H](Cc1c[nH]c2ccccc12)C(=O)O
# B5: SEQ ID NO: 104 (peptide)
# peptide: WFLISSW
# HELM: PEPTIDE1{W.F.L.I.S.[CCOC[C@H](N[*:1])C(=O)[*:2]].W}$$$$V2.0
# SMILES: CCOC[C@H](NC(=O)[C@H](CO)NC(=O)[C@@H](NC(=O)[C@H](CC(C)C)NC(=O)[C@H](Cc1ccccc1)NC(=O)[C@@H](N)Cc1c[nH]c2ccccc12)[C@@H](C)CC)C(=O)N[C@@H](Cc1c[nH]c2ccccc12)C(=O)O
# Target: T1, β-catenin
# Assay: cell-based or functional assay
row,Binder,Wnt Reporter EC50
1,MSRMWFLISFW-NH2 [SEQ ID NO: 72],> 30 µM
2,B1,> 30 µM
3,MTRMWFLISFW-NH2 [SEQ ID NO: 73],> 30 µM
4,MQRMWFLISFW-NH2 [SEQ ID NO: 74],> 30 µM
5,MSRRWFLISFW-NH2 [SEQ ID NO: 75],> 30 µM
6,MSRTWFLISFW-NH2 [SEQ ID NO: 76],> 30 µM
7,MSRFWFLISFW-NH2 [SEQ ID NO: 77],> 30 µM
8,MSRWWFLISFW-NH2 [SEQ ID NO: 78],> 30 µM
9,WSRMWFLISFW-NH2 [SEQ ID NO: 79],> 30 µM
10,MSRMWWLISFW-NH2 [SEQ ID NO: 80],> 30 µM
11,FSRMWFLISFW-NH2 [SEQ ID NO: 81],> 30 µM
12,YSRMWFLISFW-NH2 [SEQ ID NO: 82],> 30 µM
13,KSRMWFLISFW-NH2 [SEQ ID NO: 83],> 30 µM
14,RSRMWFLISFW-NH2 [SEQ ID NO: 84],> 30 µM
15,DSRMWFLISFW-NH2 [SEQ ID NO: 85],> 30 µM
16,ESRMWFLISFW-NH2 [SEQ ID NO: 86],> 30 µM
17,MSRKWFLISFW-NH2 [SEQ ID NO: 87],> 30 µM
18,MSRHWFLISFW-NH2 [SEQ ID NO: 88],> 30 µM
19,HSRMWFLISFW-NH2 [SEQ ID NO: 89],> 30 µM

row,Binder,Wnt Reporter EC50
1,WSRKWFLISFW-NH2 [SEQ ID NO: 90],> 30 µM
2,WSRHWFLISFW-NH2 [SEQ ID NO: 91],> 30 µM
3,WSRWWFLISFW-NH2 [SEQ ID NO: 92],> 15 µM and ≤ 22.5 µM
4,KSRKWFLISFW-NH2 [SEQ ID NO: 93],> 30 µM
5,KSRHWFLISFW-NH2 [SEQ ID NO: 94],> 30 µM
6,KSRWWFLISFW-NH2 [SEQ ID NO: 95],> 30 µM
7,H-MSRMWFLISSW-OH [SEQ ID NO: 99],> 22.5 µM and ≤ 30 µM
8,B2,> 7.5 µM and ≤ 15 µM
9,B3,> 15 µM and ≤ 22.5 µM
10,MWFLISFW-NH2 [SEQ ID NO: 107],> 7.5 µM and ≤ 15 µM
11,WFLISFW-NH2 [SEQ ID NO: 98],> 30 µM
12,H-WFLISSW-OH [SEQ ID NO: 97],> 22.5 µM and ≤ 30 µM
13,H-WFLITTW-OH [SEQ ID NO: 100],> 7.5 µM and ≤ 15 µM
14,B4,> 7.5 µM and ≤ 15 µM
15,H-WFLISTW-OH [SEQ ID NO: 103],> 15 µM and ≤ 22.5 µM
16,B5,> 7.5 µM and ≤ 15 µM
17,H-WFLISYW-OH [SEQ ID NO: 109],> 7.5 µM and ≤ 15 µM
18,H-WFLISFW-OH [SEQ ID NO: 110],> 7.5 µM and ≤ 15 µM
